From the supplement of paper PMC5998384 come the findings set out here.

In data set [1] the test system is HeLa Kyoto. In words: thermal stability score vs G1/S (z-score of summed log2 fold changes over temperatures); higher = more thermally stable than in G1/S.
Data set [2] concerns HeLa Kyoto. In words: solubility in G1/S (NP-40 vs SDS abundance) (log2 ratio); higher = more soluble. As to conditions: cell cycle stage: G1/S.
The subject of data set [3] is HeLa Kyoto. In words: melting temperature (median over replicates), in situ; higher = more thermally stable.
Data set [4] deals with HeLa Kyoto. Briefly: solubility change mitosis vs G1/S (difference of NP-40 vs SDS log2 ratios) (log2 ratio difference); higher = more soluble in mitosis.
The mark [5] stands for this setting: cell cycle stage: early G1 (4.5 h after nocodazole release).
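Wherever melting temperature (median over replicates), in situ is given: HeLa Kyoto cells synchronized by double thymidine or nocodazole block, proteins quantified by TMT10plex mass spectrometry, three independent biological replicates.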
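Wherever solubility change mitosis vs G1/S (difference of NP-40 vs SDS log2 ratios) is given: synchronized HeLa Kyoto cells (double thymidine block for G1/S, nocodazole release for mitosis), protein amounts in NP-40 versus SDS lysates quantified by mass spectrometry, three biological replicates.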
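Wherever solubility in G1/S (NP-40 vs SDS abundance) is given: HeLa Kyoto cells arrested at G1/S by double thymidine block, proteins quantified by TMT10plex mass spectrometry in mild NP-40 versus SDS extracts, three biological replicates.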
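Wherever thermal stability score vs G1/S (z-score of summed log2 fold changes over temperatures) is given: synchronized HeLa Kyoto cells, proteins quantified by TMT10plex mass spectrometry, three biological replicates, mitosis taken 0.5 h after nocodazole release, G1/S directly after double thymidine block.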

As for “MASSSPDSPCSCDCFVSVPPASAIPAVIFAKNSDRPRDEVQEVVFVPAGTHTPGSRLQCTYIEVEQVSKTHAVILSRPSWLWGAEMGANEHGVCIGNEAVWTKEPVGEGEALLGMDLLRLALERSSSAQEALHVITGLLEHYGQGGNCLEDAAPFSYHSTFLLADRTEAWVLETAGRLWAAQRIQEGARNISNQLSIGTDISAQHPELRTHAQAKGWWDGQGAFDFAQIFSLTQQPVRMEAAKARFQAGRELLRQRQGGITAEVMMGILRDKESGICMDSGGFRTTASMVSVLPQDPTQPCVHFLTATPDPSRSVFKPFIFGMGVAQAPQVLSPTFGAQDPVRTLPRFQTQVDRRHTLYRGHQAALGLMERDQDRGQQLQQKQQDLEQEGLEATQGLLAGEWAPPLWELGSLFQAFVKRESQAYA [SCRN2]”, the results for the thermal stability score in the data set with HeLa Kyoto [1] (setting [5]) and with HeLa Kyoto [1] (cell cycle stage: mitosis) were 0.593 and 0.947, respectively. The “solubility in G1/S (log2)” value in the data set on HeLa Kyoto [2] is 0.282. Further, the figures for the melting temperature with HeLa Kyoto [3] (cell cycle stage: G1/S) and in the data set with HeLa Kyoto [3] (cell cycle stage: mitosis) were 51 °C and 51.1 °C, respectively. In addition, in the data set on HeLa Kyoto [4], the “solubility change mitosis (log2)” value was -0.201.

Regarding “MASSSTVPLGFHYETKYVVLSYLGLLSQEKLQEQHLSSPQGVQLDIASQSLDQEILLKVKTEIEEELKSLDKEISEAFTSTGFDRHTSPVFSPANPESSMEDCLAHLGEKVSQELKEPLHKALQMLLSQPVTYQAFRECTLETTVHASGWNKILVPLVLLRQMLLELTRRGQEPLSALLQFGVTYLEDYSAEYIIQQGGWGTVFSLESEEEEYPGITAEDSNDIYILPSDNSGQVSPPESPTVTTSWQSESLPVSLSASQSWHTESLPVSLGPESWQQIAMDPEEVKSLDSNGAGEKSENNSSNSDIVHVEKEEVPEGMEEAAVASVVLPARELQEALPEAPAPLLPHITATSLLGTREPDTEVITVEKSSPATSLFVELDEEEVKAATTEPTEVEEVVPALEPTETLLSEKEINAREESLVEELSPASEKKPVPPSEGKSRLSPAGEMKPMPLSEGKSILLFGGAAAVAILAVAIGVALALRKK [BCL2L13]”, the thermal stability score with HeLa Kyoto [1] (setting [5]) is -2.28; with HeLa Kyoto [1] (cell cycle stage: mitosis), -2.76. The “solubility in G1/S (log2)” value with HeLa Kyoto [2] came to 0.337. In addition, the melting temperature was 53.9 °C with HeLa Kyoto [3] (cell cycle stage: G1/S) and 54.1 °C with HeLa Kyoto [3] (cell cycle stage: mitosis). In addition, the “solubility change mitosis (log2)” value in the data set with HeLa Kyoto [4] is -0.255.

“MASSVGNVADSTEPTKRMLSFQGLAELAHREYQAGDFEAAERHCMQLWRQEPDNTGVLLLLSSIHFQCRRLDRSAHFSTLAIKQNPLLAEAYSNLGNVYKERGQLQEAIEHYRHALRLKPDFIDGYINLAAALVAAGDMEGAVQAYVSALQYNPDLYCVRSDLGNLLKALGRLEEAKACYLKAIETQPNFAVAWSNLGCVFNAQGEIWLAIHHFEKAVTLDPNFLDAYINLGNVLKEARIFDRAVAAYLRALSLSPNHAVVHGNLACVYYEQGLIDLAIDTYRRAIELQPHFPDAYCNLANALKEKGSVAEAEDCYNTALRLCPTHADSLNNLANIKREQGNIEEAVRLYRKALEVFPEFAAAHSNLASVLQQQGKLQEALMHYKEAIRISPTFADAYSNMGNTLKEMQDVQGALQCYTRAIQINPAFADAHSNLASIHKDSGNIPEAIASYRTALKLKPDFPDAYCNLAHCLQIVCDWTDYDERMKKLVSIVADQLEKNRLPSVHPHHSMLYPLSHGFRKAIAERHGNLCLDKINVLHKPPYEHPKDLKLSDGRLRVGYVSSDFGNHPTSHLMQSIPGMHNPDKFEVFCYALSPDDGTNFRVKVMAEANHFIDLSQIPCNGKAADRIHQDGIHILVNMNGYTKGARNELFALRPAPIQAMWLGYPGTSGALFMDYIITDQETSPAEVAEQYSEKLAYMPHTFFIGDHANMFPHLKKKAVIDFKSNGHIYDNRIVLNGIDLKAFLDSLPDVKIVKMKCPDGGDNADSSNTALNMPVIPMNTIAEAVIEMINRGQIQITINGFSISNGLATTQINNKAATGEEVPRTIIVTTRSQYGLPEDAIVYCNFNQLYKIDPSTLQMWANILKRVPNSVLWLLRFPAVGEPNIQQYAQNMGLPQNRIIFSPVAPKEEHVRRGQLADVCLDTPLCNGHTTGMDVLWAGTPMVTMPGETLASRVAASQLTCLGCLELIAKNRQEYEDIAVKLGTDLEYLKKVRGKVWKQRISSPLFNTKQYTMELERLYLQMWEHYAAGNKPDHMIKPVEVTESA [OGT]”: the figures for the thermal stability score in the data set with HeLa Kyoto [1] (setting [5]) and in the data set on HeLa Kyoto [1] (cell cycle stage: mitosis) were -0.271 and 1.57, respectively. Further, the “solubility in G1/S (log2)” value in the data set with HeLa Kyoto [2] is 0.302. The melting temperature amounted to 49.4 °C in the data set on HeLa Kyoto [3] (cell cycle stage: G1/S) and 50.3 °C in the data set with HeLa Kyoto [3] (cell cycle stage: mitosis). The “solubility change mitosis (log2)” value with HeLa Kyoto [4] was -0.0669.
